In US20240336672A1:

Experiments:
Conditions in all cases: remark: other sources report otherwise
[1] = target: SARS-CoV-2 RBD domain, Wuhan (SARS-CoV-2); assay: ELISA; set-up: unit not given beside the values
[2] = target: SARS-CoV-2 RBD domain, Wuhan (SARS-CoV-2); assay: ELISA
[3] = target: T1, SARS-CoV-2 Spike (S) protein on cells (S-Flow assay) (SARS-CoV-2), P0DTC2; assay: S-Flow flow cytometry, spike-expressing cells
[4] = target: SARS-CoV-2 RBD domain, Wuhan (SARS-CoV-2); assay: competition ELISA vs bio-Cv2.3194
[5] = target: SARS-CoV-2 RBD domain, Wuhan (SARS-CoV-2); assay: RBD-ACE2 competition ELISA; set-up: unit not given beside the values
[6] = target: SARS-CoV-2 RBD domain, Wuhan (SARS-CoV-2); assay: competition ELISA vs bio-Cv2.1169
[7] = target: SARS-CoV-2 RBD domain, Wuhan (SARS-CoV-2); assay: ELISA; set-up: unit not given beside the values; remark: listed apart in the source
[8] = target: SARS-CoV-2 RBD domain, Wuhan (SARS-CoV-2); assay: SPR (Biacore), antibody immobilised
[9] = target: SARS-CoV-2 RBD domain, Wuhan (SARS-CoV-2); assay: competition ELISA vs bio-Cv2.3235
[10] = target: SARS-CoV-2 RBD domain, Wuhan (SARS-CoV-2); assay: SPR (Biacore), IgG immobilized, viral protein as analyte
[11] = target: SARS-CoV-2 RBD domain, Wuhan (SARS-CoV-2); assay: ELISA, coated antigen
[12] = target: CoV-MERS Spike ectodomain (MERS-CoV), K9N5Q8; assay: ELISA, coated antigen
[13] = target: SARS-CoV-1 Spike ectodomain (SARS-CoV-1), P59594; assay: ELISA, coated antigen
[14] = target: SARS-CoV-2 RBD domain, Wuhan (SARS-CoV-2); assay: competition ELISA vs bio-Cv2.1353
[15] = target: SARS-CoV-2 RBD domain, Wuhan (SARS-CoV-2); assay: RBD-ACE2 competition ELISA; set-up: unit not given beside the values; remark: listed apart in the source
[16] = target: SARS-CoV-2 RBD domain, Wuhan (SARS-CoV-2); assay: RBD/ACE2 blocking ELISA
[17] = target: SARS-CoV-2 RBD domain, Wuhan (SARS-CoV-2); assay: ELISA; set-up: unit not given beside the values; remark: listed apart in the source
[18] = target: SARS-CoV-2 RBD domain, Wuhan (SARS-CoV-2); assay: competition ELISA, biotinylated RBD to immobilized ACE2 ectodomain
[19] = target: SARS-CoV-2 RBD domain, Wuhan (SARS-CoV-2); assay: SPR (Biacore), antibody coupled to CM5 chip, viral protein as analyte
[20] = target: SARS-CoV-2 RBD domain, Wuhan (SARS-CoV-2); assay: competition ELISA vs bio-Cv2.5213
[21] = target: T1, SARS-CoV-2 Spike (S) protein on cells …; assay: flow cytometry (Mock 2.5)
[22] = target: T1, SARS-CoV-2 Spike (S) protein on cells …; assay: flow cytometry, transfected cells

B1: Cv2.3194 (recombinant human IgG1) (antibody)
heavy: EVQLVESGGGLIQPGGSLRLSCAASGITVTSNYMSWVRQAPGKGLEWVSVIYPGGSTFYADSVKGRFTISRDNSKNTLYLQMNSLRAEDTAVYYCARDLVVYGMDVWGQGTTVTVSSASTKGPSVFPLAPSSKSTSGGTAALGCLVKDYFPEPVTVSWNSGALTSGVHTFPAVLQSSGLYSLSSVVTVPSSSLGTQTYICNVNHKPSNTKVDKKVEPKSCDKTHTCPPCPAPELLGGPSVFLFPPKPKDTLMISRTPEVTCVVVDVSHEDPEVKFNWYVDGVEVHNAKTKPREEQYNSTYRVVSVLTVLHQDWLNGKEYKCKVSNKALPAPIEKTISKAKQPREPQVYTLPPSRDELTKNQVSLTCLVKGFYPSDIAVEWESNGQPENNYKTTPPVLDSDGSFFLYSKLTVDKSRWQQGNVFSCSVMHEALHNHYTQKSLSLSPGK
light: EIVLTQSPGTLSLSPGERATLSCRASQSVSSSYLAWYQQKPGQAPRLLIYGASSRATGIPGRFSGSGSGTDFTLTISRLEPEDFAIYYCQQGVTFGGGTKVEIKRTVAAPSVFIFPPSDEQLKSGTASVVCLLNNFYPREAKVQWKVDNALQSGNSQESVTEQDSKDSTYSLSSTLTLSKADYEKHKVYACEVTHQGLSSPVTKSFNRGEC
B1 gave an AUC (RBD bind.) [1] of 12, an OD405nm [2] of 3.4 and a S-Flow (%) [3] of 94%. For the same binder, the S-Flow (MFI) [3] was 260000 MFI, the % inhibition (competition) [4] was 72 and the AUC (RBD block.) [5] was 365. The % inhibition (competition) [6] was 56, the AUC (RBD bind.) [7] was 13 and the Kd [8] was under 100 pM. It also gave a % inhibition (competition) [9] of 74, a Kd [10] of 6.27 pM and a koff [10] of 3.06e-06 s⁻¹. It also gave a kon [10] of 487000 M⁻¹ s⁻¹, an ELISA OD [11] of 3.6 OD and an ELISA OD [12] of 0.1 OD. It also gave an ELISA OD [13] of 0.1 OD, a % inhibition (competition) [14] of 65 and an AUC (RBD block.) [15] of 183. For the same binder, the % binding inhibition [16] was 96%, the AUC [17] was 3 and the IC50 [18] was 0.099 µg/mL. It also gave an IC90 [18] of 0.185 µg/mL, a Kd [19] of under 1 pM and a % inhibition (competition) [20] of 70. The log10 ΔgMFI [21] was 4.4 and the log10 ΔgMFI [22] was 4.
